Reference: US20260232827A1 (Zymeworks, published 2026)

How the values were obtained:
[1] = target: T1, KLH (Sigma-Aldrich, H8283); experiment: non-specific ELISA, KLH coated, antibody 100 nM
T1 construct: Coating of the non-specific ELISA

[2] = target: T2, human sodium-dependent phosphate transporter 2B (NaPi2b) (human, UniProt O95436 1-690); experiment: flow cytometry, IGROV-1 cells (endogenous NaPi2b); parameters: unit not given here
T2 construct: UniProt ID is given as 095436 [sic]; also called hNaPi2b; Hu NaPi2b
T2 sequence: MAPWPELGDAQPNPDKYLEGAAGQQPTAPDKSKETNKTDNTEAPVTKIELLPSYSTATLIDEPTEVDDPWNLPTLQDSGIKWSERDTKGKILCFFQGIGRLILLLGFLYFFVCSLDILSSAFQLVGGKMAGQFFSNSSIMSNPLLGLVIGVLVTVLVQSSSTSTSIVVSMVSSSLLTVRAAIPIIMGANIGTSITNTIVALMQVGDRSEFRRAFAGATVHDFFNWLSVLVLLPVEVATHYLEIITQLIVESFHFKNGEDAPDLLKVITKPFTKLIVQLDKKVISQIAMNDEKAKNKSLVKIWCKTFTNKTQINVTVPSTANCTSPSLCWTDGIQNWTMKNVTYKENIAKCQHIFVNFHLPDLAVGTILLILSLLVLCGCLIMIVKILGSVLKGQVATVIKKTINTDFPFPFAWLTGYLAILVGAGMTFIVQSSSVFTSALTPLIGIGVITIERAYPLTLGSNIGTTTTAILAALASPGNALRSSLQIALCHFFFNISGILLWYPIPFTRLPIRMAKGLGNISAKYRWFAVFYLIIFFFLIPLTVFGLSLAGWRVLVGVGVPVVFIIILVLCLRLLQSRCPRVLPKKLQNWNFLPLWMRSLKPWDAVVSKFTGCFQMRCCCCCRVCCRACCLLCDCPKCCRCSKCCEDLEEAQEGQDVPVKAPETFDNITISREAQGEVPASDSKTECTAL

[3] = target: T2, human sodium-dependent phosphate …; experiment: flow cytometry, IGROV-1 cells (endogenous NaPi2b); apparent Kd
[4] = target: T2, human sodium-dependent phosphate …; experiment: KinExA, monovalent antibody, IGROV-1 cells (endogenous NaPi2b) as titrant, N-curve analysis
[5] = target: T3, human sodium-dependent phosphate transporter 2B (NaPi2b) (human, UniProt O95436 1-690); experiment: cell-based or functional assay
T3 sequence: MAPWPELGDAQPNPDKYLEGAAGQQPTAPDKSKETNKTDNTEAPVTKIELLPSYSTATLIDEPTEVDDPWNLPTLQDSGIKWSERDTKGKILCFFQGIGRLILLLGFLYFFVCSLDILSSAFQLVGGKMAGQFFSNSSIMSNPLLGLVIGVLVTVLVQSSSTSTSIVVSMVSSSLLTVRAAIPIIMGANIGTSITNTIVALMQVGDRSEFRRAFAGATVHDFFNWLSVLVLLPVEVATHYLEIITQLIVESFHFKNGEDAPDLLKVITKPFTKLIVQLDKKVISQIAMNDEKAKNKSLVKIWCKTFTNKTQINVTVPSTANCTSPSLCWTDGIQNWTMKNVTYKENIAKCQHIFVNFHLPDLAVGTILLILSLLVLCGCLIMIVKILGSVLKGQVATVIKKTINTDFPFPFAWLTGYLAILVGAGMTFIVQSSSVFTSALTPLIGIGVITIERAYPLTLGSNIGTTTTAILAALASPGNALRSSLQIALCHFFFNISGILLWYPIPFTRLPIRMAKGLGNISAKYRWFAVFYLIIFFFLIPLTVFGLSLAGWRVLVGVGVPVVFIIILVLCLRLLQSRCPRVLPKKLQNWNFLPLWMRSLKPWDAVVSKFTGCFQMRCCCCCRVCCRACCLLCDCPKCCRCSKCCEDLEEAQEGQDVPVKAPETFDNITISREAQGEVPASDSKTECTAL

[6] = target: T3, human sodium-dependent phosphate …; experiment: flow cytometry on HEK293-6e cells transfected with human NaPi2b
mouse NaPi2b [7] = target: T4, mouse NaPi2b (mouse, UniProt Q9DBP0 1-697); experiment: flow cytometry on HEK293-6e cells transfected with mouse NaPi2b
T4 construct: Transfected into HEK293-6e cells (clone CL_#13476); also called Ms NaPi2b
T4 sequence: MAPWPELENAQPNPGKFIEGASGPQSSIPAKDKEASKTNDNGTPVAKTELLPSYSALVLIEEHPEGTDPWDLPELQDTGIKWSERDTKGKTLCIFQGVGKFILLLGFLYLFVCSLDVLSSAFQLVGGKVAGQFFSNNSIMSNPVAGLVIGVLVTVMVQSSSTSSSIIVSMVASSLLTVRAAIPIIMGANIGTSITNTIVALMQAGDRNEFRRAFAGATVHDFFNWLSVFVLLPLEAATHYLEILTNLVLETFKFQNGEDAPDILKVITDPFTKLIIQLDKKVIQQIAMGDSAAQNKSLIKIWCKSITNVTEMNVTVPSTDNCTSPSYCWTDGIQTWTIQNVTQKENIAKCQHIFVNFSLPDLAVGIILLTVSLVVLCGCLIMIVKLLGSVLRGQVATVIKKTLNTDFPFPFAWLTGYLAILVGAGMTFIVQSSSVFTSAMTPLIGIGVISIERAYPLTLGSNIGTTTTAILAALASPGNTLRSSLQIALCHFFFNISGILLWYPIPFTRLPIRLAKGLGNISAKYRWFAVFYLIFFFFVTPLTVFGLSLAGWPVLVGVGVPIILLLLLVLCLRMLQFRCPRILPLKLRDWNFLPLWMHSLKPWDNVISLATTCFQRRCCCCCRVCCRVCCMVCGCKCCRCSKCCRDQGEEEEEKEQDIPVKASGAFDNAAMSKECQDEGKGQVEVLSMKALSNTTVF

[8] = target: T3, human sodium-dependent phosphate …; experiment: flow cytometry on HEK293-6e cells transfected with human NaPi2b; remark: listed apart in the source
cynomolgus monkey NaPi2b [9] = target: T5, cynomolgus monkey NaPi2b (cynomolgus monkey, UniProt O95436 1-690 (human entry)); experiment: flow cytometry on HEK293-6e cells transfected with cynomolgus NaPi2b
T5 construct: Transfected into HEK293-6e cells (clone CL_#13433); also called Cy NaPi2b; Cyno NaPi2b
T5 chain: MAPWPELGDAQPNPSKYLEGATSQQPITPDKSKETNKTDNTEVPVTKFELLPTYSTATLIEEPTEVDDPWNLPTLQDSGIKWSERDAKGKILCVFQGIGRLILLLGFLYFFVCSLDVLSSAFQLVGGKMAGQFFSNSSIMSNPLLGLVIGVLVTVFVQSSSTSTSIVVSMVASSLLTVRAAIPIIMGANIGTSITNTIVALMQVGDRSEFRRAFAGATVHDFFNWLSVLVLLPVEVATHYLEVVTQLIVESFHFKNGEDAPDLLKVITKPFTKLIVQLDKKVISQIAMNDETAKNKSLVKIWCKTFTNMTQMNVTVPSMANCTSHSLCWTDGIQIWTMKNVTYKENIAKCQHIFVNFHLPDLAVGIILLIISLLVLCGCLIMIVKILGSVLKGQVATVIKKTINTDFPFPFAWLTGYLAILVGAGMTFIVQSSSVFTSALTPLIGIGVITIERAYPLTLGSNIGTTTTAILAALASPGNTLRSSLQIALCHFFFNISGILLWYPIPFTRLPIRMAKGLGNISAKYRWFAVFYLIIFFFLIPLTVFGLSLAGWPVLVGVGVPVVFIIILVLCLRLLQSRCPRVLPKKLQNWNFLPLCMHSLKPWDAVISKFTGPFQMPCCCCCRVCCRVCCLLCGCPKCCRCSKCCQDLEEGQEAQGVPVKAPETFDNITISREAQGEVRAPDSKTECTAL

[10] = target: T3, human sodium-dependent phosphate …; experiment: flow cytometry on IGROV-1 cells, 24 h at 4 C, anti-human IgG Fc AF647
[11] = target: T3, human sodium-dependent phosphate …; experiment: flow cytometry on OVCAR-3 cells, 24 h at 4 C, anti-human IgG Fc AF647
[12] = target: T3, human sodium-dependent phosphate …; experiment: flow cytometry on HEK293-6e cells transfected with human NaPi2b, apparent Kd
mouse NaPi2b [13] = target: T4, mouse NaPi2b; experiment: flow cytometry on HEK293-6e cells transfected with mouse NaPi2b, apparent Kd
[14] = target: T3, human sodium-dependent phosphate …; experiment: flow cytometry on HEK293-6e cells transfected with human NaPi2b, apparent Kd; remark: listed apart in the source
cynomolgus monkey NaPi2b [15] = target: T5, cynomolgus monkey NaPi2b; experiment: flow cytometry on HEK293-6e cells transfected with cynomolgus NaPi2b, apparent Kd
[16] = target: T2, human sodium-dependent phosphate …; experiment: flow cytometry on IGROV-1 cells (endogenous NaPi2b), 24 h at 4 C, anti-human IgG Fc AF647

B1: v29452 (H1L3) (antibody, human IgG1, kappa, V domains shown)
VH: QVQLVQSGAEVKKPGASVKVSCKASGFTFTSYNVHWVRQAPGQGLEWMGAISPGNGDLSYAQKFQGRVTMTRDTSTSTVYMELSSLRSEDTAVYYCARGRTGMGAVDYWGQGTLVTVSS
VL: DVQMTQSPSSLSASVGDRVTITCRASQDVYSYLNWYQQKPGKAVKLLIYYTSRLQSGVPSRFSGSGSGTDYTLTISSLQPEDIATYYCQQYNIFPWTFGQGTKLEIKR
notes: Humanized IgG1/kappa
NS-ELISA binding score (signal over buffer well) [1]: 1.34 | Bmax [2]: 47800 | Kd [3]: 1.6 nM

B2: v36124 (monovalent format of humanized antibody variant 29456) (antibody, V domains shown)
VH: QVQLVQSGAEVKKPGASVKVSCKASGFTFTSYNVHWVRQAPGQGLEWMGAISPGNGDLSYAQKFQGRVTMTRDTSTSTVYMELSSLRSEDTAVYYCARGRTGMGAVDYWGQGTLVTVSS
VL: DVQMTQSPSSLSASVGDRVTITCRASQDVYSYLNWYQQKPGKAVKLLIYYTSRLQSGVPSRFSGSGSGTDYTLTISSLQPEDFATYYCQQYNIFPWTFGQGTKLEIK
notes: Monovalent format; rest of the construct not described; also called VH1/VL2
Kd [4]: 0.283 nM

B3: v18992 (MX35) (antibody, human IgG1, kappa)
heavy 1: GQVQLVQSGAEVVKPGASVKMSCKASGYTFTGYNIHWVKQAPGQGLEWIGAIYPGNGDTSYKQKFRGRATLTADTSTSTVYMELSSLRSEDSAVYYCARGETARATFAYWGQGTLVTVSSASTKGPSVFPLAPSSKSTSGGTAALGCLVKDYFPEPVTVSWNSGALTSGVHTFPAVLQSSGLYSLSSVVTVPSSSLGTQTYICNVNHKPSNTKVDKKVEPKSCDKTHTCPPCPAPELLGGPSVFLFPPKPKDTLMISRTPEVTCVVVDVSHEDPEVKFNWYVDGVEVHNAKTKPREEQYNSTYRVVSVLTVLHQDWLNGKEYKCKVSNKALPAPIEKTISKAKGQPREPQVYVYPPSRDELTKNQVSLTCLVKGFYPSDIAVEWESNGQPENNYKTTPPVLDSDGSFALVSKLTVDKSRWQQGNVFSCSVMHEALHNHYTQKSLSLSPG
heavy 2: not shown
light: GDIQMTQSPSSLSASVGDRVTITCSASQDIGNFLNWYQQKPGKTVKVLIYYTSSLYSGVPSRFSGSGSGTDYTLTISSLQPEDFATYYCQQYSKLPLTFGQGTKLELKRTVAAPSVFIFPPSDEQLKSGTASVVCLLNNFYPREAKVQWKVDNALQSGNSQESVTEQDSKDSTYSLSSTLTLSKADYEKHKVYACEVTHQGLSSPVTKSFNRGEC
notes: Two different heavy chains (heterodimeric Fc)
Internalized Fluorescence in OVCAR-3, 15 min, 100 nM [5]: 6650 | Internalized Fluorescence in OVCAR-3, 4 hr, 100 nM [5]: 16100 | Internalized Fluorescence in OVCAR-3, 16 hr, 100 nM [5]: 18600 | Internalized Fluorescence in OVCAR-3, 24 hr, 100 nM [5]: 28600 | Bmax [6]: 548 | Bmax (mouse NaPi2b [7]): 379 | Bmax [8]: 548 | Bmax (cynomolgus monkey NaPi2b [9]): 378 | Bmax [10]: 21400 | Kd [10]: 1.49 nM | Bmax [11]: 14500 | Kd [11]: 3.03 nM | Kd [12]: 1.51 nM | Kd (mouse NaPi2b [13]): 0.35 nM | Kd [14]: 1.51 nM | Kd (cynomolgus monkey NaPi2b [15]): 0.67 nM

B4: v18992 (MX35)-DL2 (antibody, human IgG1, kappa)
heavy 1: GQVQLVQSGAEVVKPGASVKMSCKASGYTFTGYNIHWVKQAPGQGLEWIGAIYPGNGDTSYKQKFRGRATLTADTSTSTVYMELSSLRSEDSAVYYCARGETARATFAYWGQGTLVTVSSASTKGPSVFPLAPSSKSTSGGTAALGCLVKDYFPEPVTVSWNSGALTSGVHTFPAVLQSSGLYSLSSVVTVPSSSLGTQTYICNVNHKPSNTKVDKKVEPKSCDKTHTCPPCPAPELLGGPSVFLFPPKPKDTLMISRTPEVTCVVVDVSHEDPEVKFNWYVDGVEVHNAKTKPREEQYNSTYRVVSVLTVLHQDWLNGKEYKCKVSNKALPAPIEKTISKAKGQPREPQVYVYPPSRDELTKNQVSLTCLVKGFYPSDIAVEWESNGQPENNYKTTPPVLDSDGSFALVSKLTVDKSRWQQGNVFSCSVMHEALHNHYTQKSLSLSPG
heavy 2: not shown
light: GDIQMTQSPSSLSASVGDRVTITCSASQDIGNFLNWYQQKPGKTVKVLIYYTSSLYSGVPSRFSGSGSGTDYTLTISSLQPEDFATYYCQQYSKLPLTFGQGTKLELKRTVAAPSVFIFPPSDEQLKSGTASVVCLLNNFYPREAKVQWKVDNALQSGNSQESVTEQDSKDSTYSLSSTLTLSKADYEKHKVYACEVTHQGLSSPVTKSFNRGEC
modifications: as above; maleimide functionalized auristatin drug linker (DL2); sites and DAR not stated
notes: also called MX35-DL2 ADC
Bmax [2]: 41200 | Kd [3]: 1.22 nM | EC50 (read off the curve) [16]: 1 to 1.7 nM

B5: v29814 (monovalent format of parental chimeric variant 23855) (antibody, V domains shown)
VH: QAYLQQSGAELVRPGASVKMSCKASGFTFTSYNVHWVKQTPRQGLEWIAAISPGNGDLSYNQRFKDKATLTVDRSSSTAYMQLSGLTSEDSAVYFCARGRTGMGAVDYWGQGTSVTVSS
VL: DVQMTQTASSLSASLGDRVTISCRASQDVYSYLNWYQQKPHGTVKLLIYYTSRLQSGVPSRFTGSGSGTDYSLTISNLEPEDIATYYCQQYNIFPWTFGGGTKLEIK
notes: Monovalent format; VH and VL are those of v23855; also called parental chimeric monovalent antibody variant
Kd [4]: 0.15 nM
